Non-standard residues stand in square brackets, D forms with d. Groups on a side chain read outwards from the residue. No end group written: not given here. *: point of attachment. C16 diacid = O=C(O)CCCCCCCCCCCCCCC(=O)*; Aib = CC(C)(N)C(=O)O

Experimental findings from patent US20230416330A1, “Optimized GIP Peptide Analogues” (Antag Therapeutics ApS, priority 2019, published 2023) are described below.

For this assay, the target named is T1, human GIP receptor (human, UniProt P48546 22-466).
T1 sequence (looked up): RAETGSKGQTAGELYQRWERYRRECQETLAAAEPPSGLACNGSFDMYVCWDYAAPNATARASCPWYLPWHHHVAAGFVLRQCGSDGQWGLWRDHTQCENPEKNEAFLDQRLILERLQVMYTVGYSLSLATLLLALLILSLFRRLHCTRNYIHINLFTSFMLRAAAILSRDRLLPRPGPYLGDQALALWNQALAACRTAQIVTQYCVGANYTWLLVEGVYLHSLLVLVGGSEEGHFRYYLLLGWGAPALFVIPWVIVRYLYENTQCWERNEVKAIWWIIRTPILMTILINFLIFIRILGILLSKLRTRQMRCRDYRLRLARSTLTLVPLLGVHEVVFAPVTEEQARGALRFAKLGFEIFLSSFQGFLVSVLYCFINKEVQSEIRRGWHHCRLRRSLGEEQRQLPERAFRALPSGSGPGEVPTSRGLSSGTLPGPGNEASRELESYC
Briefly: cell-based or functional assay.

B1: AT722 (peptide)
peptide: EGTFISEYSI[Aib]LEKIK([Ser-Gly-Gly-Gly-Gly-C16 diacid])QQEFVEWLLAQKPSSGAPPPS-OH
modifications: N-terminus assumed
SMILES: CC[C@H](C)[C@H](NC(=O)[C@H](CCCCN)NC(=O)[C@H](CCC(=O)O)NC(=O)[C@H](CC(C)C)NC(=O)C(C)(C)NC(=O)[C@@H](NC(=O)[C@H](CO)NC(=O)[C@H](Cc1ccc(O)cc1)NC(=O)[C@H](CCC(=O)O)NC(=O)[C@H](CO)NC(=O)[C@@H](NC(=O)[C@H](Cc1ccccc1)NC(=O)[C@@H](NC(=O)CNC(=O)[C@@H](N)CCC(=O)O)[C@@H](C)O)[C@@H](C)CC)[C@@H](C)CC)C(=O)N[C@@H](CCCCNC(=O)[C@H](CO)NC(=O)CNC(=O)CNC(=O)CNC(=O)CNC(=O)CCCCCCCCCCCCCCC(=O)O)C(=O)N[C@@H](CCC(N)=O)C(=O)N[C@@H](CCC(N)=O)C(=O)N[C@@H](CCC(=O)O)C(=O)N[C@@H](Cc1ccccc1)C(=O)N[C@H](C(=O)N[C@@H](CCC(=O)O)C(=O)N[C@@H](Cc1c[nH]c2ccccc12)C(=O)N[C@@H](CC(C)C)C(=O)N[C@@H](CC(C)C)C(=O)N[C@@H](C)C(=O)N[C@@H](CCC(N)=O)C(=O)N[C@@H](CCCCN)C(=O)N1CCC[C@H]1C(=O)N[C@@H](CO)C(=O)N[C@@H](CO)C(=O)NCC(=O)N[C@@H](C)C(=O)N1CCC[C@H]1C(=O)N1CCC[C@H]1C(=O)N1CCC[C@H]1C(=O)N[C@@H](CO)C(=O)O)C(C)C
B1: the “nM (Kb, Gaddum assay, cAMP)” value came out at 0.28 nM and the “pKb (Gaddum assay, cAMP)” value came to 9.6.

B2: AT742 (peptide)
peptide: EGTFISDYSIAMDKK(C16 diacid)HQQDFVEWLLAQKPSSGAPPPS-OH
modifications: N-terminus assumed
SMILES: CC[C@H](C)[C@H](NC(=O)[C@H](CO)NC(=O)[C@H](Cc1ccc(O)cc1)NC(=O)[C@H](CC(=O)O)NC(=O)[C@H](CO)NC(=O)[C@@H](NC(=O)[C@H](Cc1ccccc1)NC(=O)[C@@H](NC(=O)CNC(=O)[C@@H](N)CCC(=O)O)[C@@H](C)O)[C@@H](C)CC)C(=O)N[C@@H](C)C(=O)N[C@@H](CCSC)C(=O)N[C@@H](CC(=O)O)C(=O)N[C@@H](CCCCN)C(=O)N[C@@H](CCCCNC(=O)CCCCCCCCCCCCCCC(=O)O)C(=O)N[C@@H](Cc1c[nH]cn1)C(=O)N[C@@H](CCC(N)=O)C(=O)N[C@@H](CCC(N)=O)C(=O)N[C@@H](CC(=O)O)C(=O)N[C@@H](Cc1ccccc1)C(=O)N[C@H](C(=O)N[C@@H](CCC(=O)O)C(=O)N[C@@H](Cc1c[nH]c2ccccc12)C(=O)N[C@@H](CC(C)C)C(=O)N[C@@H](CC(C)C)C(=O)N[C@@H](C)C(=O)N[C@@H](CCC(N)=O)C(=O)N[C@@H](CCCCN)C(=O)N1CCC[C@H]1C(=O)N[C@@H](CO)C(=O)N[C@@H](CO)C(=O)NCC(=O)N[C@@H](C)C(=O)N1CCC[C@H]1C(=O)N1CCC[C@H]1C(=O)N1CCC[C@H]1C(=O)N[C@@H](CO)C(=O)O)C(C)C
Turning to B2, the “nM (Kb, Gaddum assay, cAMP)” value turned out to be 32 nM and the “pKb (Gaddum assay, cAMP)” value amounted to 7.5.

B3: AT739 (peptide)
peptide: EGTFISDYSK(C16 diacid)AMDKIHQQDFVEWLLAQKPSSGAPPPS-OH
modifications: N-terminus assumed
SMILES: CC[C@H](C)[C@H](NC(=O)[C@H](CCCCN)NC(=O)[C@H](CC(=O)O)NC(=O)[C@H](CCSC)NC(=O)[C@H](C)NC(=O)[C@H](CCCCNC(=O)CCCCCCCCCCCCCCC(=O)O)NC(=O)[C@H](CO)NC(=O)[C@H](Cc1ccc(O)cc1)NC(=O)[C@H](CC(=O)O)NC(=O)[C@H](CO)NC(=O)[C@@H](NC(=O)[C@H](Cc1ccccc1)NC(=O)[C@@H](NC(=O)CNC(=O)[C@@H](N)CCC(=O)O)[C@@H](C)O)[C@@H](C)CC)C(=O)N[C@@H](Cc1c[nH]cn1)C(=O)N[C@@H](CCC(N)=O)C(=O)N[C@@H](CCC(N)=O)C(=O)N[C@@H](CC(=O)O)C(=O)N[C@@H](Cc1ccccc1)C(=O)N[C@H](C(=O)N[C@@H](CCC(=O)O)C(=O)N[C@@H](Cc1c[nH]c2ccccc12)C(=O)N[C@@H](CC(C)C)C(=O)N[C@@H](CC(C)C)C(=O)N[C@@H](C)C(=O)N[C@@H](CCC(N)=O)C(=O)N[C@@H](CCCCN)C(=O)N1CCC[C@H]1C(=O)N[C@@H](CO)C(=O)N[C@@H](CO)C(=O)NCC(=O)N[C@@H](C)C(=O)N1CCC[C@H]1C(=O)N1CCC[C@H]1C(=O)N1CCC[C@H]1C(=O)N[C@@H](CO)C(=O)O)C(C)C
Consider B3, for which the “nM (Kb, Gaddum assay, cAMP)” value worked out at 11 nM and the “pKb (Gaddum assay, cAMP)” value was found to be 7.9.
The matching figures for EGTFISEYSI[Aib]LEKIK([Lys-Ala-Ala-Ala-Glu-Lys-Ala-Ala-Ala-Glu-Lys-Ala-Ala-Ala-Glu-C16 diacid])QQEFVEWLLAQKPSSGAPPPS-OH (not fully specified) [AT724]: 0.31 nM and 9.5.

B4: AT740 (peptide)
peptide: EGTFISDYSIK(C16 diacid)MDKIHQQDFVEWLLAQKPSSGAPPPS-OH
modifications: N-terminus assumed
SMILES: CC[C@H](C)[C@H](NC(=O)[C@H](CCCCN)NC(=O)[C@H](CC(=O)O)NC(=O)[C@H](CCSC)NC(=O)[C@H](CCCCNC(=O)CCCCCCCCCCCCCCC(=O)O)NC(=O)[C@@H](NC(=O)[C@H](CO)NC(=O)[C@H](Cc1ccc(O)cc1)NC(=O)[C@H](CC(=O)O)NC(=O)[C@H](CO)NC(=O)[C@@H](NC(=O)[C@H](Cc1ccccc1)NC(=O)[C@@H](NC(=O)CNC(=O)[C@@H](N)CCC(=O)O)[C@@H](C)O)[C@@H](C)CC)[C@@H](C)CC)C(=O)N[C@@H](Cc1c[nH]cn1)C(=O)N[C@@H](CCC(N)=O)C(=O)N[C@@H](CCC(N)=O)C(=O)N[C@@H](CC(=O)O)C(=O)N[C@@H](Cc1ccccc1)C(=O)N[C@H](C(=O)N[C@@H](CCC(=O)O)C(=O)N[C@@H](Cc1c[nH]c2ccccc12)C(=O)N[C@@H](CC(C)C)C(=O)N[C@@H](CC(C)C)C(=O)N[C@@H](C)C(=O)N[C@@H](CCC(N)=O)C(=O)N[C@@H](CCCCN)C(=O)N1CCC[C@H]1C(=O)N[C@@H](CO)C(=O)N[C@@H](CO)C(=O)NCC(=O)N[C@@H](C)C(=O)N1CCC[C@H]1C(=O)N1CCC[C@H]1C(=O)N1CCC[C@H]1C(=O)N[C@@H](CO)C(=O)O)C(C)C
As for B4, the “nM (Kb, Gaddum assay, cAMP)” value came out at 14 nM and the “pKb (Gaddum assay, cAMP)” value was 7.9.
Turning to EGTFISEYSI[Aib]LEKIK([Ala-Glu-Leu-Ala-C16 diacid])QQEFVEWLLAQKPSSGAPPPS-OH [AT725], the “nM (Kb, Gaddum assay, cAMP)” value stood at 0.6 nM and the “pKb (Gaddum assay, cAMP)” value stood at 9.2.

B5: AT744 (peptide)
peptide: EGTFISDYSIAMDKIHQQDFVEWLLAQKPSSGAPPPSK(C16 diacid)-OH
modifications: N-terminus assumed
SMILES: CC[C@H](C)[C@H](NC(=O)[C@H](CO)NC(=O)[C@H](Cc1ccc(O)cc1)NC(=O)[C@H](CC(=O)O)NC(=O)[C@H](CO)NC(=O)[C@@H](NC(=O)[C@H](Cc1ccccc1)NC(=O)[C@@H](NC(=O)CNC(=O)[C@@H](N)CCC(=O)O)[C@@H](C)O)[C@@H](C)CC)C(=O)N[C@@H](C)C(=O)N[C@@H](CCSC)C(=O)N[C@@H](CC(=O)O)C(=O)N[C@@H](CCCCN)C(=O)N[C@H](C(=O)N[C@@H](Cc1c[nH]cn1)C(=O)N[C@@H](CCC(N)=O)C(=O)N[C@@H](CCC(N)=O)C(=O)N[C@@H](CC(=O)O)C(=O)N[C@@H](Cc1ccccc1)C(=O)N[C@H](C(=O)N[C@@H](CCC(=O)O)C(=O)N[C@@H](Cc1c[nH]c2ccccc12)C(=O)N[C@@H](CC(C)C)C(=O)N[C@@H](CC(C)C)C(=O)N[C@@H](C)C(=O)N[C@@H](CCC(N)=O)C(=O)N[C@@H](CCCCN)C(=O)N1CCC[C@H]1C(=O)N[C@@H](CO)C(=O)N[C@@H](CO)C(=O)NCC(=O)N[C@@H](C)C(=O)N1CCC[C@H]1C(=O)N1CCC[C@H]1C(=O)N1CCC[C@H]1C(=O)N[C@@H](CO)C(=O)N[C@@H](CCCCNC(=O)CCCCCCCCCCCCCCC(=O)O)C(=O)O)C(C)C)[C@@H](C)CC
Take B5: the “nM (Kb, Gaddum assay, cAMP)” value was determined as 4.8 nM and the “pKb (Gaddum assay, cAMP)” value was determined as 8.3.

B6: AT741 (peptide)
peptide: EGTFISDYSIAMDK(C16 diacid)IHQQDFVEWLLAQKPSSGAPPPS-OH
modifications: N-terminus assumed
SMILES: CC[C@H](C)[C@H](NC(=O)[C@H](CO)NC(=O)[C@H](Cc1ccc(O)cc1)NC(=O)[C@H](CC(=O)O)NC(=O)[C@H](CO)NC(=O)[C@@H](NC(=O)[C@H](Cc1ccccc1)NC(=O)[C@@H](NC(=O)CNC(=O)[C@@H](N)CCC(=O)O)[C@@H](C)O)[C@@H](C)CC)C(=O)N[C@@H](C)C(=O)N[C@@H](CCSC)C(=O)N[C@@H](CC(=O)O)C(=O)N[C@@H](CCCCNC(=O)CCCCCCCCCCCCCCC(=O)O)C(=O)N[C@H](C(=O)N[C@@H](Cc1c[nH]cn1)C(=O)N[C@@H](CCC(N)=O)C(=O)N[C@@H](CCC(N)=O)C(=O)N[C@@H](CC(=O)O)C(=O)N[C@@H](Cc1ccccc1)C(=O)N[C@H](C(=O)N[C@@H](CCC(=O)O)C(=O)N[C@@H](Cc1c[nH]c2ccccc12)C(=O)N[C@@H](CC(C)C)C(=O)N[C@@H](CC(C)C)C(=O)N[C@@H](C)C(=O)N[C@@H](CCC(N)=O)C(=O)N[C@@H](CCCCN)C(=O)N1CCC[C@H]1C(=O)N[C@@H](CO)C(=O)N[C@@H](CO)C(=O)NCC(=O)N[C@@H](C)C(=O)N1CCC[C@H]1C(=O)N1CCC[C@H]1C(=O)N1CCC[C@H]1C(=O)N[C@@H](CO)C(=O)O)C(C)C)[C@@H](C)CC
On to B6, for which the “nM (Kb, Gaddum assay, cAMP)” value came to 11 nM and the “pKb (Gaddum assay, cAMP)” value came out at 7.9.
